Measured values published in publication PMC4891106.

Target: Cbl (UniProt P22681)
Experiment: anti-CD93 co-IP, anti-Cbl blot
Conditions: reference: wild type CD93 (res85); sites Y628,Y644

binding against the reference: lost
Substance: CD93 (from UniProt Q9NPY3) Y628F/Y644F (res85Y1Y2)
